Results: the supplement of paper PMC9112550, “Optimization of the antimicrobial peptide Bac7 by deep mutational scanning” (BMC Biology, 2022)

The sequences below were run on Escherichia coli TOP10 (assay: shrunken log2 fold change of peptide-encoding DNA abundance (4.5 h post-induction vs induction); higher = less antimicrobial activity (less host growth inhibition)). Settings: time post-induction: 4.5 h; library: site-saturation at positions 5, 18, 19, 20.
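Further: peptides expressed intracellularly from a pBAD plasmid library in pooled LB shake-flask culture, induced with 0.3% L-arabinose, DNA abundance read by NGS, three biological replicates, DESeq2 with apeglm shrinkage.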

Sequence	shrunken log2 fold change
RRIRARPPRLPRPRPRPCRFPRP	0.0212
RRIRIRPPRLPRPRPRPIAWPRP	0.0253
RRIRMRPPRLPRPRPRPDEGPRP	-0.0141
RRIRSRPPRLPRPRPRPCTCPRP	-0.177
RRIRMRPPRLPRPRPRPYQSPRP	-0.118
RRIRLRPPRLPRPRPRPDFQPRP	0.157
RRIRSRPPRLPRPRPRPRCQPRP	0.0737
RRIRDRPPRLPRPRPRPILTPRP	-0.0144
RRIRRRPPRLPRPRPRPHKIPRP	-0.182
RRIRMRPPRLPRPRPRPRGVPRP	1.23
RRIRYRPPRLPRPRPRPQDSPRP	-0.0125
RRIRDRPPRLPRPRPRPSCKPRP	-0.1
RRIRARPPRLPRPRPRPFQLPRP	-0.94
RRIRQRPPRLPRPRPRPAMIPRP	0.103
RRIRARPPRLPRPRPRPTTMPRP	0.156
RRIRDRPPRLPRPRPRPGIHPRP	-0.89
RRIRDRPPRLPRPRPRPPATPRP	0.75
RRIRRRPPRLPRPRPRPGMYPRP	-0.0527
RRIRQRPPRLPRPRPRPIDMPRP	0.00643
RRIRFRPPRLPRPRPRPDKSPRP	0.053
RRIRPRPPRLPRPRPRPKSPPRP	-0.12
RRIRCRPPRLPRPRPRPYDQPRP	-0.16
RRIRIRPPRLPRPRPRPEHIPRP	-0.142
RRIRRRPPRLPRPRPRPEDNPRP	0.066
RRIRRRPPRLPRPRPRPKDVPRP	0.159

Sequence	shrunken log2 fold change
RRIRPRPPRLPRPRPRPSFEPRP	-0.102
RRIRGRPPRLPRPRPRPWMAPRP	0.439
RRIRVRPPRLPRPRPRPIAKPRP	0.391
RRIRHRPPRLPRPRPRPEGDPRP	0.383
RRIRWRPPRLPRPRPRPVWYPRP	-0.18
RRIRTRPPRLPRPRPRPWPHPRP	-0.091
RRIRQRPPRLPRPRPRPWVMPRP	-0.0363
RRIRQRPPRLPRPRPRPCCLPRP	-0.0936
RRIRHRPPRLPRPRPRPWSRPRP	0.0245
RRIRCRPPRLPRPRPRPQSYPRP	-0.308
RRIRIRPPRLPRPRPRPVWQPRP	0.536
RRIRYRPPRLPRPRPRPNWNPRP	-1.09
RRIRQRPPRLPRPRPRPQHEPRP	0.119
RRIRIRPPRLPRPRPRPQVLPRP	-0.338
RRIRYRPPRLPRPRPRPFIIPRP	-1.23
RRIRERPPRLPRPRPRPYMDPRP	-0.534
RRIRCRPPRLPRPRPRPYRVPRP	1.99
RRIRIRPPRLPRPRPRPNWNPRP	-0.388
RRIRQRPPRLPRPRPRPHWCPRP	0.1
RRIRNRPPRLPRPRPRPIARPRP	-0.0163
RRIRRRPPRLPRPRPRPYGHPRP	-0.198
RRIRTRPPRLPRPRPRPPNDPRP	-0.133
RRIRYRPPRLPRPRPRPSFHPRP	-1.01
RRIRRRPPRLPRPRPRPGPKPRP	0.255
RRIRYRPPRLPRPRPRPRYTPRP	-0.0817

Sequence	shrunken log2 fold change
RRIRTRPPRLPRPRPRPQHMPRP	-0.518
RRIRKRPPRLPRPRPRPYCIPRP	-0.0175
RRIRLRPPRLPRPRPRPSNAPRP	-0.204
RRIRMRPPRLPRPRPRPSAIPRP	0.476
RRIRGRPPRLPRPRPRPDKRPRP	0.767
RRIRDRPPRLPRPRPRPTFVPRP	0.177
RRIRNRPPRLPRPRPRPTQKPRP	0.241
RRIRERPPRLPRPRPRPYAVPRP	-0.441
RRIRNRPPRLPRPRPRPNGCPRP	-0.0605
RRIRFRPPRLPRPRPRPPWVPRP	0.401
RRIRGRPPRLPRPRPRPMDMPRP	-0.02
RRIRERPPRLPRPRPRPQIMPRP	-0.398
RRIRCRPPRLPRPRPRPLFFPRP	-0.273
RRIRTRPPRLPRPRPRPTNEPRP	-0.261
RRIRRRPPRLPRPRPRPVCGPRP	0.75
RRIRPRPPRLPRPRPRPPWYPRP	-0.195
RRIRKRPPRLPRPRPRPAGFPRP	0.0388
RRIRIRPPRLPRPRPRPYVDPRP	-0.0276
RRIRYRPPRLPRPRPRPQENPRP	-0.00441
RRIRYRPPRLPRPRPRPQRLPRP	-0.131
RRIRMRPPRLPRPRPRPDIRPRP	-0.00649
RRIRARPPRLPRPRPRPMADPRP	0.357
RRIRKRPPRLPRPRPRPPCMPRP	-0.0208
RRIRWRPPRLPRPRPRPVAGPRP	0.524
RRIRTRPPRLPRPRPRPVSDPRP	-0.114

Sequence	shrunken log2 fold change
RRIRWRPPRLPRPRPRPYPIPRP	0.0625
RRIRGRPPRLPRPRPRPCANPRP	0.0504
RRIRHRPPRLPRPRPRPWSIPRP	0.0612
RRIRLRPPRLPRPRPRPNQNPRP	-0.276
RRIRGRPPRLPRPRPRPKAEPRP	1.35
RRIRIRPPRLPRPRPRPVHLPRP	-0.0973
RRIRARPPRLPRPRPRPIYTPRP	-0.387
RRIRCRPPRLPRPRPRPRVYPRP	-0.217
RRIRLRPPRLPRPRPRPQEFPRP	0.00998
RRIRHRPPRLPRPRPRPGIKPRP	0.0126
RRIRQRPPRLPRPRPRPRQAPRP	0.0647
RRIRDRPPRLPRPRPRPYISPRP	-0.176
RRIRFRPPRLPRPRPRPWWVPRP	0.00262
RRIRDRPPRLPRPRPRPDMFPRP	0.0667
RRIRTRPPRLPRPRPRPHNQPRP	-0.369
RRIRCRPPRLPRPRPRPEANPRP	0.477
RRIRNRPPRLPRPRPRPAGLPRP	-0.118
RRIRYRPPRLPRPRPRPTGLPRP	-0.101
RRIRRRPPRLPRPRPRPGTNPRP	0.0926
RRIRGRPPRLPRPRPRPCCVPRP	0.751
RRIRIRPPRLPRPRPRPYIGPRP	-0.775
RRIRNRPPRLPRPRPRPNAVPRP	0.266
RRIRIRPPRLPRPRPRPEWGPRP	-0.0166
RRIRTRPPRLPRPRPRPKSVPRP	-0.0225
RRIRQRPPRLPRPRPRPGNVPRP	0.0829

Sequence	shrunken log2 fold change
RRIRRRPPRLPRPRPRPSNFPRP	-0.177
RRIRGRPPRLPRPRPRPTSKPRP	0.69
RRIRMRPPRLPRPRPRPILEPRP	0.142
RRIRGRPPRLPRPRPRPQNCPRP	0.0394
RRIRRRPPRLPRPRPRPMHLPRP	0.156
RRIRLRPPRLPRPRPRPNQYPRP	-0.126
RRIRSRPPRLPRPRPRPCDTPRP	-0.227
RRIRNRPPRLPRPRPRPLPQPRP	0.229
RRIRWRPPRLPRPRPRPDCYPRP	0.148
RRIRDRPPRLPRPRPRPWDRPRP	-0.193
RRIRERPPRLPRPRPRPQGQPRP	-0.0238
RRIRVRPPRLPRPRPRPVWDPRP	0.142
RRIRFRPPRLPRPRPRPRPAPRP	0.807
RRIRCRPPRLPRPRPRPEPDPRP	0.307
RRIRLRPPRLPRPRPRPDKIPRP	-0.494
RRIRFRPPRLPRPRPRPWCCPRP	-0.654
RRIRARPPRLPRPRPRPNEPPRP	-0.115
RRIRDRPPRLPRPRPRPVRRPRP	0.971
RRIRGRPPRLPRPRPRPCGPPRP	1.29
RRIRERPPRLPRPRPRPHLAPRP	0.101
RRIRKRPPRLPRPRPRPHLEPRP	-0.0191
RRIRCRPPRLPRPRPRPAYCPRP	-0.363
RRIRVRPPRLPRPRPRPRERPRP	0.578
RRIRCRPPRLPRPRPRPQVEPRP	0.0599
RRIRPRPPRLPRPRPRPGATPRP	0.54
